The record followed here is patent publication US20180002383A1.

Experiment [1] addresses human GLUT-1 glucose transporter, endogenous on cells (the 'HTLV receptor' on HeLa, 293T, Jurkat cells and human erythrocytes) (human) (UniProt P11166). Nature of the experiment: cell-based or functional assay.
For experiment [2] the target is unchanged.

Chain of human GLUT-1 glucose transporter, endogenous on cells (the 'HTLV receptor' on HeLa, 293T, Jurkat cells and human erythrocytes) (human) (P11166 whole entry): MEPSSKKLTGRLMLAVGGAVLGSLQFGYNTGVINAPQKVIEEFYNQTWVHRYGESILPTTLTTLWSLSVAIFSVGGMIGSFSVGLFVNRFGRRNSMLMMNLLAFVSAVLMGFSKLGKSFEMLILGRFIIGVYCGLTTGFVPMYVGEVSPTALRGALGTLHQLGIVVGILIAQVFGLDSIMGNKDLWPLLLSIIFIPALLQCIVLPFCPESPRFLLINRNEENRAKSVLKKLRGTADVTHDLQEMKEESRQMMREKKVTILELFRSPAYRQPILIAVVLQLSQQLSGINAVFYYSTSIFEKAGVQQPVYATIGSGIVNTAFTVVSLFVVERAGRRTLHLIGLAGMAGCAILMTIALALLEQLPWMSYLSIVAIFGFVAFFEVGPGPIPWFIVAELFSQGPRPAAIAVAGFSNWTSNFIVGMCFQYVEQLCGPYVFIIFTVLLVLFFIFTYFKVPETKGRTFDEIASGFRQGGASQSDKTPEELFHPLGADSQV

Take “H183FEnv, non-syncytial chimeric envelope with the N-terminal 183 amino acids of the HTLV-1 receptor”: in experiment [1], the Lactate accumulation in culture supernatant was 3 fold lower.
Regarding “HTLV-2 RBD (H2RBD), first 178 residues of HTLV2-SU fused to a C-terminal rabbit IgG Fc tag (rFc) (from UniProt P01868 98-324) (Fc fusion)”, in experiment [1], the 2-deoxyglucose uptake (fold decrease) is 4 and the HTLV titers (infection of 293T cells by MLV particles pseudotyped with HTLV-2 envelope) came to 2 logs.
On to “HTLV-1 RBD (H1RBD), first 215 residues of HTLV-1 SU fused to a C-terminal rabbit IgG Fc tag (rFc) (Fc fusion)”, for which the fold increase of binding after overnight culture without glucose in experiment [2] is 2 fold. For the same substance, in experiment [1], the 2-deoxyglucose uptake (fold decrease) was determined as 4 and the Lactate accumulation in culture supernatant amounted to 3 fold lower.
